For assay [1], the target named is DesAOMT, O-methyltransferase from Desulfuromonas acetoxidans (Desulfuromonas acetoxidans). The assay can be described thus: SEC.
Assay [2] has the same target. The assay can be described thus: crystal structure.
Assay [3] addresses StrAOMT, O-methyltransferase from Streptomyces avermitilis (Streptomyces avermitilis). The assay can be described thus: crystal structure.
For assay [4] the target is unchanged. As to the kind of experiment: crystal structure. This is another data set of the same source.

Where two headings read alike, the source gives them in different places.

Usually stoichiometry N stands for the number of molecules, sites or subunits per partner or assembly. In the case of “DesAOMT, O-methyltransferase from Desulfuromonas acetoxidans (enzyme)”, the stoichiometry N in assay [1] and in assay [2] was 2 in each case.

For the substance “StrAOMT, O-methyltransferase from Streptomyces avermitilis (enzyme)”, the stoichiometry N in assay [3] and in assay [4] was 2 each time.

The record behind these values is doi:10.1101/2023.01.28.526015.
